B1: selection peptide KLGHPDTLNQ (peptide)
peptide: KLGHPDTLNQ
notes: also called calibrator peptide
B2: CPa9-HNE antibody (antibody, mouse IgG1, kappa, V domains shown)
VH: QVQLQQSGPELVKPGASVKMSCKASGYTFTDHVINWVRQRTGQGLEWIGEIYPGSGSTYYNEKFKGKATLTADKSSNTAYMQLSSLTSEDSAVYFCAWFAYWGQGTLVTVSA
VL: DIVMTQSPSSLSVSAGEKVTMSCKSSQSLLNSGNQKNYLAWYQQKPGQPPKLLIYGASTRESGVPDRFTGSGSGTDFTLTISSVQAEDLAVYYCLNDHSYPYTFGGGTKLEIKR
notes: also called monoclonal antibody targeting CPa9-HNE

Assays:
[1] = molecular target: B2; assay: competitive ELISA: standard (calibrator) peptide in solution competes with …-K-Biotin on streptavidin plates for the CPa9-HNE antibody; mean of the standard curves
[2] = molecular target: T1, human neutrophil elastase (human, UniProt P08246 30-247, limits assumed); assay: competitive ELISA (CPa9-HNE assay) on in vitro cleavage samples and controls, FIG. 2C
T1 construct: also called HNE
T1 sequence (looked up): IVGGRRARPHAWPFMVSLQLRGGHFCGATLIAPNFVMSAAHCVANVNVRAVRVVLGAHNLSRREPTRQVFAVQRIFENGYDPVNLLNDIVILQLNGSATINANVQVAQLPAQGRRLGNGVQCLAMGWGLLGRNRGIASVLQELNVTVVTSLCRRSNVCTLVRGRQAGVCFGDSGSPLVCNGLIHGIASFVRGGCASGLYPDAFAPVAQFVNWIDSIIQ
Method: (§1) Samples were diluted in incubation buffer containing 1% bovine serum albumin (Sigma Aldrich, cat. No. a-7906, 98 purity) to maintain protein stability and for blocking. Samples and controls were added to the wells and incubated with the primary monoclonal antibody against the HNE-generated neo-epitope (CPa9-HNE), at 20° C. for 1 hour and agitated at 300 rpm. Unbound primary antibody and sample were discarded, and the wells were washed with washing buffer. Subsequently, HRP conjugated AffiniPure Rabbit anti-mouse IgG secondary antibodies (Jackson cat. No 315-035-045) was added to the wells and incubated for 1 hour at 20° C. Unbound secondary antibody was discarded by washing the wells in washing buffer. Chemiluminescence substrate (Roche Diagnostic's cat. No. 11582950001) was added to the well (100 μl/well), and the plates were incubated for 3 minutes at room temperature before reading the plates. Finally, an ELISA reader (VersaMAX; Molecular Devices, Wokingham Berkshire, UK) was used to quantify the relative light units (RLU) emitted from the plates […]. A standard curve was plotted using a 4-parametric mathematical fit model. […]

[3] = molecular target: T2, full-length human calprotectin (heterodimer of S100A9 and S100A8) (Homo sapiens, UniProt P06702 1-114; P05109 1-93); assay: as above
T2 construct: also called intact full-length human calprotectin; purified calprotectin
T2 sequence (looked up) 1: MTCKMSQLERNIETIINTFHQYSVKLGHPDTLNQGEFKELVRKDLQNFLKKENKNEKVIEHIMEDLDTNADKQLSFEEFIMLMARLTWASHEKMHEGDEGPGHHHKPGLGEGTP
T2 sequence (looked up) 2: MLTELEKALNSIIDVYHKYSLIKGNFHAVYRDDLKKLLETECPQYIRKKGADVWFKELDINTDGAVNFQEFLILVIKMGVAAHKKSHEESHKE
Method: as §1

[4] = molecular target: T3, truncated peptide LGHPDTLNQ (Homo sapiens); assay: competitive ELISA (CPa9-HNE assay), peptide specificity test, FIG. 2B
T3 construct: also called N-truncated shortened version
T3 peptide: LGHPDTLNQ
Method: (§2) No. 11940279, Hvidovre, Denmark) were coated with a biotinylated antigen ([…]-K-Biotin (SEQ ID NO: 27)) by incubation with the biotinylated antigen for 30 minutes at room temperature. Unbound biotinylated coater antigen was discarded, and the wells were washed with washing buffer (25 mM TRIZMA, 50 mM NaCl, 0.036% Bronidox L5, 0.1% Tween 20) using a standardized ELISA plate washing machine (BioTek® Instruments, Microplate washer, ELx405 Select CW, Winooski, USA). Samples were diluted in incubation buffer containing 1% bovine serum albumin (Sigma Aldrich, cat. No. a-7906, 98 purity) to maintain protein stability and for blocking. Samples and controls were added to the wells and incubated with the primary monoclonal antibody against the HNE-generated neo-epitope (CPa9-HNE), at 20° C. for 1 hour and agitated at 300 rpm. Unbound primary antibody and sample were discarded, and the wells were washed with washing buffer. Subsequently, HRP conjugated AffiniPure Rabbit anti-mouse IgG secondary antibodies (Jackson cat. No 315-035-045) was added to the wells and incubated for 1 hour at 20° C. Unbound secondary antibody was discarded by washing the wells in washing buffer. Chemiluminescence substrate (Roche Diagnostic's cat. No. 11582950001) was added to the well (100 μl/well), and the plates were incubated for 3 minutes at room temperature before reading the plates. Finally, an ELISA reader (VersaMAX; Molecular Devices, Wokingham Berkshire, UK) was used to quantify the relative light units (RLU) emitted from the plates […]. A standard curve was plotted using a 4-parametric mathematical fit model.
(§3) A monoclonal antibody (also referred to herein as the CPa9-HNE antibody) targeting CPa9-HNE (the HNE-generated N-terminus neo-epitope of NBH-222) was developed and used in an ELISA protocol as described above (also referred to hereinafter as the CPa9-HNE assay), and the specificity of this antibody when used in this immunoassay was tested against the selection peptide and the elongated peptide, truncated peptide and non-sense peptide (having the sequences set out in Table 1).

[5] = molecular target: T4, elongated peptide VKLGHPDTLNQ (Homo sapiens); assay: as above
T4 construct: also called N-extended elongated version
T4 peptide: VKLGHPDTLNQ
Method: as §2, §3

[6] = molecular target: T5, non-sense peptide YRDDLKKLLET (Homo sapiens); assay: as above
T5 construct: also called NBH-225
T5 peptide: YRDDLKKLLET
Method: as §2, §3

[7] = molecular target: B1; assay: as above
Method: as §2, §3

Row | Binder | IC50 [1] [µg/mL] | binding result [2] | binding result [3] | binding result [4] | binding result [5] | binding result [6] | binding result [7]
1 | B1 | 0.0783 |  |  |  |  |  | 
2 | B2 |  | no binding | no binding | no binding | no binding | no binding | binds

Source: patent publication US20230184787A1 (NORDIC BIOSCIENCE A S, published 2023)
